Source: patent US20250177547A1, “PSMA-STEAP1 DUAL VARIABLE DOMAIN IMMUNOGLOBLIN (DVD-Ig) MOLECULES AND DRUG CONJUGATES” (AbbVie Inc., priority 2023, published 2025)
Marks after values point to notes of the source that are not given here.

How the values were obtained:
HEK293-PSMA cells = assay: In vitro cytotoxicity of MMAE conjugates (CellTiter-Glo), HEK293-PSMA; details: FIG. 3B/3E
LNCaP.FGC xenograft = LNCaP.FGC xenograft study of MMAE conjugates; type: in vivo, mouse
Protocol: (§1) Male NSG mice were obtained from Jackson Laboratories (Bar Harbor, ME) for both LNCaP.FGC and 22Rv1 xenograft studies. Mice were housed by treatment group at seven to eight mice per cage. Food and water were available ad libitum. Mice were acclimated to the animal facilities for a period of at least one week prior to commencement of experiments. Animals were tested in the light phase of a 12-hour light:12-hour dark schedule (lights on at 06:00 hours).
(§2) To generate xenografts from LNCaP.FGC (ATCC) and from 22Rv1 (ATCC) cell lines, 5×10^6 viable LNCaP.FGC and 22Rv1 cells were inoculated subcutaneously into the right flank of male NSG mice, respectively. The injection volume was 0.1 mL and composed of a 1:1 mixture with Matrigel (BD, Franklin Lakes, NJ). Measurements of the length (L) and width (W) of the tumor were taken via electronic caliper and the tumor volume was calculated according to the following equation: V=L×W^2/2.
Mice were assigned to treatment groups so that the mean tumor volumes within groups were approximately 175-250 mm^3. An anti-PSMA-MMAE ADC at Dose-1 1×, an anti-STEAP1-MMAE ADC at Dose-1 1×, and various of the PSMA/STEAP-1 DVD-Igs conjugated with MMAE described above at Dose-1 1.33×(Clone 13 was administered at Dose-1 0.87×due to limited compound availability) were administered within 24-48 hours of assignment to treatment groups based on tumor volumes. Tumor volumes were estimated two times weekly after dosing, with study groups body weights taken at the time of tumor measurements. Mice were euthanized (1) when tumor volume reached 2,000 mm^3, (2) when general efficacy parameters were confidently determined, or (3) when necessitated by other animal health issues.
Parameters of Efficacy were determined as follows:
TGI (tumor growth inhibition)=1−(mean tumor volume of treatment group/mean tumor volume of treatment control group)×100 based on measurements on day of vehicle endpoint. P values are derived from Student's T test comparison of treatment group vs. vehicle control group.
TGD (tumor growth delay)=(T−C)/C×100, where T is the median time to endpoint of treatment group and C is the median time to endpoint of treatment control group. P values are derived from Kaplan Meier log-rank comparison of treatment group vs. vehicle control group.

22Rv1 xenograft = 22Rv1 xenograft study of MMAE conjugates; type: in vivo, mouse; details: FIG. 4A
Protocol: as §1, §2
Mice were assigned to treatment groups so that the mean tumor volumes within groups were approximately 175-250 mm^3. […] Mice were euthanized (1) when tumor volume reached 2,000 mm^3, (2) when general efficacy parameters were confidently determined, or (3) when necessitated by other animal health issues.

B1: STEAP1-PSMA-(vcMMAE) Clone 15: PSMA-STEAP1 DVD-Ig clone 15 conjugated with monomethyl auristatin E (MMAE) (conjugate)
heavy: EVQLVESGGGVVQPGRSLRLSCVASGFPFNNYWMTWIRQAPGKGLEWIASITITGGTTYYPGSVKGRFTISRDNSKSTLYLQMNSLRAEDTAVYYCTRERYSTEYYPYYWYFDFWGQGTMVTVSSGGGGSGGGGSEVQLVQSGAEVKKPGSSVKVSCKASGYTFTDYYMNWVKQAPGKGLEWIGLINPSNGGTNYNQKFRDKATLTVDKSTSTAYMELSSLRSEDTAVYYCARRAQATSGDYWGQGTTVTVSS
light: DIQMTQSPSSLSASVGDRVTITCRTSQDIGNYLRWFQQKPGKSPKLMIYDAINLAAGVPSRFSGSGSGTDYTLTISSLQPEDVATYYCLQHNEYPYTFGQGTKLEIKGGSGGGGSGDIQMTQSPSSLSASVGDRVTITCHASQNINVWLSWYQQKPGKAPKLLIYKASNLHTGVPSRFSGSGSGTDFTFTISSLQPEDIATYYCQQGQTYPLTFGGGTKVEIK
modifications: left off: a dimerising Fc or GST; large carriers
For B1, the “cytotoxic activity in HEK293-PSMA cells” value (HEK293-PSMA cells) was “weaker than PSMA-MMAE”, the “activity in LNCaP.FGC xenograft model relative to monospecific ADCs” value (LNCaP.FGC xenograft; FIG. 4B) was “comparable or superior activity relative to monospecific ADCs” and the “PR (%) partial response” value (LNCaP.FGC xenograft; LNCaP.FGC xenograft, IP, QD x 1, >25 mm^3 but less than one-half of volume at onset) was 38* %. The “TR (%) total responders” value (LNCaP.FGC xenograft; LNCaP.FGC xenograft, IP, QD x 1, sum of CR and PR) was 75*** %, the “CR (%) complete response” value (LNCaP.FGC xenograft; LNCaP.FGC xenograft, IP, QD x 1, tumor burden ≤25 mm^3 for at least three consecutive measurements) was 38% and the “TGI (%)” value (LNCaP.FGC xenograft; LNCaP.FGC xenograft, male NSG mice, IP, QD x 1, day of comparison d 63 post inoculation) was 88*** %. The “TGD (%)” value (LNCaP.FGC xenograft; LNCaP.FGC xenograft, male NSG mice, IP, QD x 1, tumor volume endpoint 1000 mm^3) was 229*** % and the “activity in 22Rv1 xenograft model relative to monospecific ADCs” value (22Rv1 xenograft) was “comparable or superior activity relative to monospecific ADCs”.
